Data taken from US20210340530A1 (INTELLIA THERAPEUTICS, published 2021).

Key:
[1] = target: T1, WT1 (Wilms' tumor protein) peptide on HLA-A*02:01 (human); assay: killing
T1 peptide: RMFPNAPYL

[2] = target: T2, … (RMF) WT1 peptide pulsed on target cells (HLA-02.01 positive T2 cell line; OCI-AML3); assay: cell-based or functional assay
[3] = target: T3, … (VLD) WT1 peptide pulsed on target cells (HLA-02.01 positive T2 cell line; OCI-AML3); assay: cell-based or functional assay
[4] = target: T2, … (RMF) WT1 peptide pulsed on target …; assay: cell-based or functional assay; remark: listed apart in the source
[5] = target: T3, … (VLD) WT1 peptide pulsed on target …; assay: cell-based or functional assay; remark: listed apart in the source
[6] = target: T3, … (VLD) WT1 peptide pulsed on target …; assay: cell-based or functional assay; remark: listed apart in the source
[7] = target: T3, … (VLD) WT1 peptide pulsed on target …; assay: cell-based or functional assay; remark: listed apart in the source
[8] = target: T4, VLD-Tetramer (pMHC tetramer with WT1 peptide …); assay: flow cytometry, VLD-Tetramer staining of engineered T cells; TRAC + TRBC RNP
T4 construct: Staining reagent; also called VLD (Wilms' tumor antigen) tetramer; TCR specific pMHC tetramer
Method: (§1) Four to 12 days after RNP nucleofection, edited T cells (200 ul/200,000 cells) were collected in a 96 well round bottom plate and spun down at 500 g for 5 minutes. Cells were then resuspended in an antibody mixture containing a combination of antibodies targeting CD3, CD4, CD8, CD45RO, CD45RA, CD27, CCR7, CD62L, and/or the TCR specific pMHC tetramer or TCR specific Vbeta chain antibody. The mixture was incubated for 45 minutes at room temperature in the dark. Samples were spun down at 500 g for 5 minutes, cell pellets collected, and resuspended in 1:10,000 DAPI (Biolegend—#422801) in FACS buffer. Flow cytometry was then performed using the cytoflex according to the manufacturer's instructions.
(§2) T cells were evaluated with additional engineered TCRs for the impact of endogenous beta chains on pairing of both the inserted alpha chain and inserted beta chain. The experiment was performed as described herein except tetramer staining was used to measure MFI and the AAV inserts in Table 31 were used for transduction.

[9] = target: T4, VLD-Tetramer (pMHC tetramer with WT1 …); assay: flow cytometry, VLD-Tetramer staining of engineered T cells; TRAC RNP only
Method: as §1, §2

[10] = target: T2, … (RMF) WT1 peptide pulsed on target …; assay: cell-based or functional assay; remark: listed apart in the source
[11] = target: T3, … (VLD) WT1 peptide pulsed on target …; assay: cell-based or functional assay; remark: listed apart in the source

B1: TCR-F (TCR, V domains shown)
Valpha: AQKITQTQPGMFVQEKEAVTLDCTYDTSDPSYGLFWYKQPSSGEMIFLIYQGSYDQQNATEGRYSLNFQKARKSANLVISASQLGDSAMYFCAISGNTPLVFGKGTRLSVIA
Vbeta: AAGVIQSPRHLIKEKRETATLKCYPIPRHDTVYWYQQGPGQDPQFLISFYEKMQSDKGSIPDRFSAQQFSDYHSELNMSSLELGDSALYFCASSLRGGLEKLFFGSGTQLSVL
binding result [1]: no recognition

B2: TCR-H (WT1-specific T-cell receptor) (TCR, V domains shown)
V domain 1: RKEVEQDPGPFNVPEGATVAFNCTYSNSASQSFFWYRQDCRKEPKLLMSVYSSGNEDGRFTAQLNRASQYISLLIRDSKLSDSATYLCVVKPDPGAGSYQLTFGKGTKLSVIP
V domain 2: NAGVTQTPKFRVLKTGQSMTLLCAQDMNHEYMYWYRQDPGMGLRLIHYSVGEGTTAKGEVPDGYNVSRLKKQNFLLGLESAAPSQTSVYFCASRGYHRLNNEQFFGPGTRLTVLE
notes: also called AV16-TCR-H
Caspase 3/7 integrated intensity; TRAC only; 500 nM RMF; T2 [2]: 4190 | Caspase 3/7 integrated intensity; TRAC/TRBC; 500 nM RMF; T2 [2]: 3890 | Caspase 3/7 integrated intensity; TRAC only; 0 nM VLD; T2 [3]: 6560 | Caspase 3/7 integrated intensity; TRAC only; 0.005 nM VLD; T2 [3]: 7650 | Caspase 3/7 integrated intensity; TRAC only; 0.05 nM VLD; T2 [3]: 23600 | Caspase 3/7 integrated intensity; TRAC only; 0.5 nM VLD; T2 [3]: 550000 | Caspase 3/7 integrated intensity; TRAC only; 5 nM VLD; T2 [3]: 992000 | Caspase 3/7 integrated intensity; TRAC only; 50 nM VLD; T2 [3]: 1.08e+06 | Caspase 3/7 integrated intensity; TRAC only; 500 nM VLD; T2 [3]: 1.18e+06 | Caspase 3/7 integrated intensity; TRAC/TRBC; 0 nM VLD; T2 [3]: 7390 | Caspase 3/7 integrated intensity; TRAC/TRBC; 0.005 nM VLD; T2 [3]: 9820 | Caspase 3/7 integrated intensity; TRAC/TRBC; 0.05 nM VLD; T2 [3]: 32400 | Caspase 3/7 integrated intensity; TRAC/TRBC; 0.5 nM VLD; T2 [3]: 628000 | Caspase 3/7 integrated intensity; TRAC/TRBC; 5 nM VLD; T2 [3]: 984000 | Caspase 3/7 integrated intensity; TRAC/TRBC; 50 nM VLD; T2 [3]: 1.08e+06 | Caspase 3/7 integrated intensity; TRAC/TRBC; 500 nM VLD; T2 [3]: 1.18e+06 | % CD4+ TNFa+ IFNg+; TRAC/TRBC; 50 nM RMF; T2 [4]: 2.9% | % CD8+ TNFa+ IFNg+; TRAC/TRBC; 50 nM RMF; T2 [4]: 0.6% | % CD4+ TNFa+ IFNg+; TRAC/TRBC; 0 nM VLD; T2 [5]: 3.1% | % CD4+ TNFa+ IFNg+; TRAC/TRBC; 0.005 nM VLD; T2 [5]: 2.1% | % CD4+ TNFa+ IFNg+; TRAC/TRBC; 0.05 nM VLD; T2 [5]: 3% | % CD4+ TNFa+ IFNg+; TRAC/TRBC; 0.5 nM VLD; T2 [5]: 4.4% | % CD4+ TNFa+ IFNg+; TRAC/TRBC; 5 nM VLD; T2 [5]: 6% | % CD4+ TNFa+ IFNg+; TRAC/TRBC; 50 nM VLD; T2 [5]: 6.9% | % CD8+ TNFa+ IFNg+; TRAC/TRBC; 0 nM VLD; T2 [5]: 0.5% | % CD8+ TNFa+ IFNg+; TRAC/TRBC; 0.005 nM VLD; T2 [5]: 3.7% | % CD8+ TNFa+ IFNg+; TRAC/TRBC; 0.05 nM VLD; T2 [5]: 27.1% | % CD8+ TNFa+ IFNg+; TRAC/TRBC; 0.5 nM VLD; T2 [5]: 48.7% | % CD8+ TNFa+ IFNg+; TRAC/TRBC; 5 nM VLD; T2 [5]: 67.5% | % CD8+ TNFa+ IFNg+; TRAC/TRBC; 50 nM VLD; T2 [5]: 79.2% | IL2 release; TRAC only; 0 nM VLD; T2 [6]: 102 pg/mL | IL2 release; TRAC only; 0.005 nM VLD; T2 [6]: 44 pg/mL | IL2 release; TRAC only; 0.05 nM VLD; T2 [6]: 2 pg/mL | IL2 release; TRAC only; 0.5 nM VLD; T2 [6]: 23 pg/mL | IL2 release; TRAC only; 5 nM VLD; T2 [6]: 175 pg/mL | IL2 release; TRAC only; 50 nM VLD; T2 [6]: 111 pg/mL | IL2 release; TRAC only; 500 nM VLD; T2 [6]: 387 pg/mL | IL2 release; TRAC/TRBC; 0 nM VLD; T2 [6]: 17 pg/mL | IL2 release; TRAC/TRBC; 0.005 nM VLD; T2 [6]: 15 pg/mL | IL2 release; TRAC/TRBC; 0.05 nM VLD; T2 [6]: 40 pg/mL | IL2 release; TRAC/TRBC; 0.5 nM VLD; T2 [6]: 17 pg/mL | IL2 release; TRAC/TRBC; 5 nM VLD; T2 [6]: 30 pg/mL | IL2 release; TRAC/TRBC; 50 nM VLD; T2 [6]: 286 pg/mL | IL2 release; TRAC/TRBC; 500 nM VLD; T2 [6]: 455 pg/mL | IFN-gamma release; TRAC/TRBC; 50 nM VLD; T2 [7]: 16100 | IFN-gamma release; TRAC/TRBC; 500 nM VLD; T2 [7]: 24400 | IFN-gamma release; only TRAC; 50 nM VLD; T2 [7]: 15900 | IFN-gamma release; only TRAC; 500 nM VLD; T2 [7]: 24300 | Mean % Tetramer+ (CD4+) [8]: 80.2% | Mean % Tetramer+ (CD8+) [8]: 77.1% | Mean Tetramer MFI (CD4+) [8]: 131000 MFI | Mean Tetramer MFI (CD8+) [8]: 139000 MFI | Mean % Tetramer+ (CD4+) [9]: 71.7% | Mean % Tetramer+ (CD8+) [9]: 68.8% | Mean Tetramer MFI (CD4+) [9]: 64300 MFI | Mean Tetramer MFI (CD8+) [9]: 75200 MFI | % CD4+ CD107a+; TRAC/TRBC; 50 nM RMF; T2 [10]: 3.7% | % CD8+ CD107a+; TRAC/TRBC; 50 nM RMF; T2 [10]: 2.64% | % CD4+ CD107a+; TRAC/TRBC; 0 nM VLD; T2 [11]: 3.42% | % CD4+ CD107a+; TRAC/TRBC; 0.005 nM VLD; T2 [11]: 3.63% | % CD4+ CD107a+; TRAC/TRBC; 0.05 nM VLD; T2 [11]: 4.48% | % CD4+ CD107a+; TRAC/TRBC; 0.5 nM VLD; T2 [11]: 6.82% | % CD4+ CD107a+; TRAC/TRBC; 5 nM VLD; T2 [11]: 8.09% | % CD4+ CD107a+; TRAC/TRBC; 50 nM VLD; T2 [11]: 8.28% | % CD8+ CD107a+; TRAC/TRBC; 0 nM VLD; T2 [11]: 2.29% | % CD8+ CD107a+; TRAC/TRBC; 0.005 nM VLD; T2 [11]: 5.05% | % CD8+ CD107a+; TRAC/TRBC; 0.05 nM VLD; T2 [11]: 23.6% | % CD8+ CD107a+; TRAC/TRBC; 0.5 nM VLD; T2 [11]: 45.6% | % CD8+ CD107a+; TRAC/TRBC; 5 nM VLD; T2 [11]: 60.7% | % CD8+ CD107a+; TRAC/TRBC; 50 nM VLD; T2 [11]: 70.5%
